Laboratory results reported in publication PMC2556094 (The EMBO Journal, 2008).
Each block holds one molecule with its values, some of them ahead of it.

Experiments:
[1] = target: Hsp90 (of the ITC in Supplementary Figure 1); assay: ITC
His6-tagged human Hsp90β = His6-tagged human Hsp90β (human, UniProt P08238 1-724); assay: pull-down
human Skp1 (human) = human Skp1 (human) (UniProt P63208); assay: ITC

Sequence of His6-tagged human Hsp90β (P08238 whole entry): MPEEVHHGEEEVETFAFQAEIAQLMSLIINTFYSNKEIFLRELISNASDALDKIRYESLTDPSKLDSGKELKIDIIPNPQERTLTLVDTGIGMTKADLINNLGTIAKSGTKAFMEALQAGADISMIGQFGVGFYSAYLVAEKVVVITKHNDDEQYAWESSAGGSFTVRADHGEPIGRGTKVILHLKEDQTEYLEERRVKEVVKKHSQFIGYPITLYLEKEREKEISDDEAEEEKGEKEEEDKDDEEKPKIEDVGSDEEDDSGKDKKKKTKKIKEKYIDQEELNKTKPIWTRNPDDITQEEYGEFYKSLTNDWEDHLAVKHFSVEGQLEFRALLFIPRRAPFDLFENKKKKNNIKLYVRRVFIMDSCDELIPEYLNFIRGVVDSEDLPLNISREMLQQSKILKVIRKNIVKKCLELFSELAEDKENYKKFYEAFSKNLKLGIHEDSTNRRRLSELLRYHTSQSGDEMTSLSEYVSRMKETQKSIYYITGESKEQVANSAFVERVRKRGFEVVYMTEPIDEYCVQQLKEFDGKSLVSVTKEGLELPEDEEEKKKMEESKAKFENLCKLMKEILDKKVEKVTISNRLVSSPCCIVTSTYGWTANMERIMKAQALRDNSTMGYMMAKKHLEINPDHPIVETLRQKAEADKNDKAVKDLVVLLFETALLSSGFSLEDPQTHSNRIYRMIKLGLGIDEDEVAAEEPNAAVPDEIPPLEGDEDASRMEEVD

stoichiometry N [1]: 1
Molecule: Sgt1 (of the ITC in Supplementary Figure 1) (natural protein)

binding result (His6-tagged human Hsp90β): binds
Kd (human Skp1 (human)): 1640 nM
B1: human Sgt1, wild type (natural protein, UniProt Q9Y2Z0-2 1-333, looked up)
chain: MAAAAAGTATSQRFFQSFSDALIDEDPQAALEELTKALEQKPDDAQYYCQRAYCHILLGNYCVAVADAKKSLELNPNNSTAMLRKGICEYHEKNYAAALETFTEGQKLDSADANFSVWIKRCQEAQNGSESEVWTHQSKIKYDWYQTESQVVITLMIKNVQKNDVNVEFSEKELSALVKLPSGEDYNLKLELLHPIIPEQSTFKVLSTKIEIKLKKPEAVRWEKLEGQGDVPTPKQFVADVKNLYPSSSPYTRNWDKLVGEIKEEEKNEKLEGDAALNRLFQQIYSDGSDEVKRAMNKSFMESGGTVLSTNWSDVGKRKVEINPPDDMEWKKY
